Results taken from patent US20260117203A1, “MUTANT KETOREDUCTASE WITH INCREASED KETOREDUCTASE ACTIVITY AS WELL AS METHODS AND USES INVOLVING THE SAME” (Hoffmann-La Roche Inc., priority 2023, published 2026).

Experiments:
Assay type in all cases: biochemical, Sporidiobolus salmonicolor
[1] = substrate: C[C@@H]1CC(=O)c2ncnc(N3CCN(C(=O)OC(C)(C)C)CC3)c21; assay: Kinetic characterization (app. KM, app. kcat), Table 9c, variant E00144; conditions: other: E00144; pH 7.0
[2] = substrate: C[C@@H]1CC(=O)c2ncnc(N3CCN(C(=O)OC(C)(C)C)CC3)c21; assay: Kinetic characterization (app. KM, app. kcat), Table 9c, variant E00128; conditions: other: E00128; pH 7.0
[3] = substrate: C[C@@H]1CC(=O)c2ncnc(N3CCN(C(=O)OC(C)(C)C)CC3)c21; assay: Kinetic characterization (app. KM, app. kcat), Table 9c, wild type; conditions: other: WT; pH 7.0
[4] = substrate: C[C@@H]1CC(=O)c2ncnc(N3CCN(C(=O)OC(C)(C)C)CC3)c21; assay: Kinetic characterization (app. KM, app. kcat), Table 9c, variant E00184 (first line); conditions: other: E00184, first line; pH 7.0
[5] = substrate: C[C@@H]1CC(=O)c2ncnc(N3CCN(C(=O)OC(C)(C)C)CC3)c21; assay: Kinetic characterization (app. KM, app. kcat), Table 9c, variant E00184 (second line); conditions: other: E00184, second line; pH 7.0
[6] = substrate: C[C@@H]1CC(=O)c2ncnc(N3CCN(C(=O)OC(C)(C)C)CC3)c21; assay: Kinetic characterization (app. KM, app. kcat), Table 9c, variant E00158; conditions: other: E00158; pH 7.0

B1: Sporidiobolus salmonicolor ketoreductase variant E00144, Trp97_Met241_Trp242_Ser245_Met316_Met342, SEQ ID NO: 3, His-tag (Sporobolomyces salmonicolor; … (protein)
chain: MAKIDNAVLPEGSLVLVTGANGFVASHVVEQLLEHGYKVRGTARSASKLANLQKRWDAKYPGRFETAVVEDMLKQGAYDEVIKGAAGVAHIASVVSWSNKYDEVVTPAIGGTLNALRAAAATPSVKRFVLTSSTVSALIPKPNVEGIYLDEKSWNLESIDKAKTLPESDPQKSLWVYAASKTEAELAAWKFMDENKPHFTLNAVLPNYTIGTIFDPETQSGSTSGWMMSLFNGEVSPALAMWPPSYYVSAVDIGLLHLGCLVLPQIERRRVYGTAGTFDWNTVLATFRKLYPSKTFPADFPDQGQDLSKFDTAPSMEILKSLGRPGWRSIEESIKDLVGSEMA
Km [1]: 175.2 ± 9.9 µM
kcat [1]: 0.103 ± 0.00333 s⁻¹
kcat/Km [1]: 593 M⁻¹ s⁻¹

B2: Sporidiobolus salmonicolor ketoreductase variant E00128, Trp97_Met241_Trp242_Ser245, SEQ ID NO: 2, His-tag (Sporobolomyces salmonicolor; F97W/L241M/M242W/Q245S) (protein)
chain: MAKIDNAVLPEGSLVLVTGANGFVASHVVEQLLEHGYKVRGTARSASKLANLQKRWDAKYPGRFETAVVEDMLKQGAYDEVIKGAAGVAHIASVVSWSNKYDEVVTPAIGGTLNALRAAAATPSVKRFVLTSSTVSALIPKPNVEGIYLDEKSWNLESIDKAKTLPESDPQKSLWVYAASKTEAELAAWKFMDENKPHFTLNAVLPNYTIGTIFDPETQSGSTSGWMMSLFNGEVSPALAMWPPSYYVSAVDIGLLHLGCLVLPQIERRRVYGTAGTFDWNTVLATFRKLYPSKTFPADFPDQGQDLSKFDTAPSLEILKSLGRPGWRSIEESIKDLVGSETA
Km [2]: 162.8 ± 7.8 µM
kcat [2]: 0.0967 ± 0.00167 s⁻¹
kcat/Km [2]: 592 M⁻¹ s⁻¹

B3: Sporidiobolus salmonicolor ketoreductase, wild type (WT), UniProt Q9UUN9, SEQ ID NO: 1 (Sporobolomyces salmonicolor) (protein)
chain: MAKIDNAVLPEGSLVLVTGANGFVASHVVEQLLEHGYKVRGTARSASKLANLQKRWDAKYPGRFETAVVEDMLKQGAYDEVIKGAAGVAHIASVVSFSNKYDEVVTPAIGGTLNALRAAAATPSVKRFVLTSSTVSALIPKPNVEGIYLDEKSWNLESIDKAKTLPESDPQKSLWVYAASKTEAELAAWKFMDENKPHFTLNAVLPNYTIGTIFDPETQSGSTSGWMMSLFNGEVSPALALMPPQYYVSAVDIGLLHLGCLVLPQIERRRVYGTAGTFDWNTVLATFRKLYPSKTFPADFPDQGQDLSKFDTAPSLEILKSLGRPGWRSIEESIKDLVGSETA
Km [3]: 11.9 ± 1.1 µM
kcat [3]: 0.00817 ± 0.000333 s⁻¹
kcat/Km [3]: 683 M⁻¹ s⁻¹

B4: Sporidiobolus salmonicolor ketoreductase variant E00184, Trp97_Ala224_Lys238_Met241_Trp242_Ser245_Gly246_Met316_Met342, SEQ ID NO: 8, His-tag (Sporobolomyces … (protein)
chain: MAKIDNAVLPEGSLVLVTGANGFVASHVVEQLLEHGYKVRGTARSASKLANLQKRWDAKYPGRFETAVVEDMLKQGAYDEVIKGAAGVAHIASVVSWSNKYDEVVTPAIGGTLNALRAAAATPSVKRFVLTSSTVSALIPKPNVEGIYLDEKSWNLESIDKAKTLPESDPQKSLWVYAASKTEAELAAWKFMDENKPHFTLNAVLPNYTIGTIFDPETQSGSTAGWMMSLFNGEVSPKLAMWPPSGYVSAVDIGLLHLGCLVLPQIERRRVYGTAGTFDWNTVLATFRKLYPSKTFPADFPDQGQDLSKFDTAPSMEILKSLGRPGWRSIEESIKDLVGSEMA
Km [4]: 471.7 ± 34.6 µM
kcat [4]: 0.355 ± 0.0167 s⁻¹
kcat/Km [4]: 753 M⁻¹ s⁻¹

B5: Sporidiobolus salmonicolor ketoreductase variant E00184 (second line so labelled; in Table 9b W97 V134 A224 K238 M241 W242 S245 G246 M316 M342, the mutations … (protein)
chain: MAKIDNAVLPEGSLVLVTGANGFVASHVVEQLLEHGYKVRGTARSASKLANLQKRWDAKYPGRFETAVVEDMLKQGAYDEVIKGAAGVAHIASVVSWSNKYDEVVTPAIGGTLNALRAAAATPSVKRFVLTSSVVSALIPKPNVEGIYLDEKSWNLESIDKAKTLPESDPQKSLWVYAASKTEAELAAWKFMDENKPHFTLNAVLPNYTIGTIFDPETQSGSTAGWMMSLFNGEVSPKLAMWPPSGYVSAVDIGLLHLGCLVLPQIERRRVYGTAGTFDWNTVLATFRKLYPSKTFPADFPDQGQDLSKFDTAPSMEILKSLGRPGWRSIEESIKDLVGSEMA
notes: second row labelled E00184, evidently E00185
Km [5]: 143.5 ± 5.5 µM
kcat [5]: 0.525 ± 0.0133 s⁻¹
kcat/Km [5]: 3660 M⁻¹ s⁻¹

B6: Sporidiobolus salmonicolor ketoreductase variant E00158, Trp97_Lys238_Met241_Trp242_Ser245_Met316_Met342, SEQ ID NO: 6, His-tag (Sporobolomyces salmonicolor; … (protein)
chain: MAKIDNAVLPEGSLVLVTGANGFVASHVVEQLLEHGYKVRGTARSASKLANLQKRWDAKYPGRFETAVVEDMLKQGAYDEVIKGAAGVAHIASVVSWSNKYDEVVTPAIGGTLNALRAAAATPSVKRFVLTSSTVSALIPKPNVEGIYLDEKSWNLESIDKAKTLPESDPQKSLWVYAASKTEAELAAWKFMDENKPHFTLNAVLPNYTIGTIFDPETQSGSTSGWMMSLFNGEVSPKLAMWPPSYYVSAVDIGLLHLGCLVLPQIERRRVYGTAGTFDWNTVLATFRKLYPSKTFPADFPDQGQDLSKFDTAPSMEILKSLGRPGWRSIEESIKDLVGSEMA
Km [6]: 299.7 ± 7.9 µM
kcat [6]: 0.255 ± 0.00667 s⁻¹
kcat/Km [6]: 853 M⁻¹ s⁻¹
